Test results: patent US12043671B2, “Antibodies targeting an amphiregulin-derived cell surface neo-epitope” (Gundersen Lutheran Medical Foundation, Inc., priority 2021, dated 2024)

Experiments:
[1] = biological target: T1, cleaved-AREG peptide (Homo sapiens, UniProt P15514); experiment: ELISA binding of 1A3 and 1A3-VC-PAB-MMAE to cleaved-AREG peptide; details: 0.001-1 μg/mL
T1 construct: host or cells: synthetic peptide
Description: Maxisorp flat bottom 96-well plates (Thermo Fisher Scientific) were coated with 5 μg/mL cleaved-AREG peptide at 4° C. overnight. After washing thrice with PBST (PBS with 0.05% Tween20) and blocking for 2 h at RT with 5% non-fat dry milk in PBST, various concentrations of 1A3 and 1A3-VC-PAB-MMAE (0.001, 0.01, 0.1, 1 μg/mL) were added to the wells and incubated for 2 h at RT. The wells were washed four times with PBST and were incubated at RT with Goat anti-rabbit IgG (H+L) Cross-adsorbed-HRP conjugate secondary Ab (ThermoFisher G-21234) for 1 h. One-Step™ Turbo™ B-ELISA Substrate Solution (Thermo Fisher Scientific) was added to the wells for color development, incubated for 15 min and the reaction was stopped by adding 2 M H2SO4.

[2] = biological target: T2, FL AREG (peptide representing uncleaved AREG) (Homo sapiens, UniProt P15514); experiment: Immunoblot of TRF-conjugated AREG peptides, intact cleavage site; assay type: binding; details: 1 μg/mL antibody, 200 ng TRF-conjugated peptide
T2 construct: a peptide spanning this region (SMKTHSMIDSSLSKIAC); host or cells: synthetic peptide conjugated to transferrin
Description: (§1) Monomethyl auristatin E (MMAE) conjugated 1A3 antibody (1A3-VC-PAB-MMAE) was prepared using a kit (CM11409) from CellMosaic Inc. (Woburn, MA, USA) following the manufacturer's instructions. Maleimide-activated valine-citrulline p-aminobenzylcarbamate (VCPAB) MMAE was coupled directly to the antibody after reduction through alkylation.^13 The specificity of 1A3 and 1A3-VC-PAB-MMAE to peptides representing human cleaved-AREG was confirmed by immunoblotting. Briefly, transferrin (TRF) conjugated peptides representing cleaved and uncleaved AREG (200 ng) were electrophoresed on SDS-PAGE gels, transferred to PVDF membrane and probed with 1 μg/mL of 1A3 and 1A3-VC-PAB-MMAE. Horseradish peroxidase-conjugated goat anti-rabbit IgG was used. Antibody binding was detected with enhanced chemiluminescence (ECL; Amersham, Arlington Heights, IL, USA). Furthermore, the characterization and purity of 1A3-VC-PAB-MMAE were analyzed using hydrophobic interaction chromatography (HIC) and size-exclusion chromatography (Cell Mosaic).

[3] = system: MCF7-F (fulvestrant-resistant MCF7) breast cancer cells; experiment: MTT cytotoxicity assay; details: 1.56-200 nM, 72 h
Description: (§5) The cells were seeded at a density of 5000 cells/well in 96-well plates. Approximately 24 h after cell seeding, the cells were treated with varying doses (1.56, 3.125, 6.25, 12.5, 25, 50, 100 and 200 nM) of MMAE, 1A3 and 1A3-VC-PAB-MMAE. Untreated cells were used as control. After incubating for 72 h, the medium was aspirated and 50 μL of serum-free media and 50 μL of MTT solution (5 mg/mL solution in PBS) was added into each well; the cells were then incubated for 3 h at 37° C. The formazan crystals formed were dissolved with 4 mM HCl, 0.1% NP40 in isopropanol. The absorbance was measured at 590 nm using VersaMax Microplate Reader (Molecular Devices LLC, San Jose, California, USA). The assays were performed in triplicate.

[4] = biological target: T3, Trunc AREG (fragment that remains cell-bound after cleavage by ADAM17) (Homo sapiens, UniProt P15514); experiment: Immunoblot of TRF-conjugated AREG peptides, cleaved mimic; assay type: binding; details: 1 μg/mL antibody, 200 ng TRF-conjugated peptide
T3 construct: host or cells: synthetic peptide conjugated to transferrin
Description: as §1

[5] = system: MCF7 xenografts; experiment: Orthotopic MCF7 breast cancer xenograft in NSG mice; assay type: in vivo, mouse
Description: (§2) In Vivo Antitumor Activity Studies: The animal experiments were approved by the Institutional Animal Care and Use Committee of University of Wisconsin La Crosse (La Crosse, Wisconsin, USA). Four-week-old female NOD.Cg-Prkdc^scid II2rg^tm1Wjl/SzJ mice (NSG; The Jackson Laboratory) were acclimated for 1 week before the experiments. For MCF7 breast cancer xenograft model, the mice were implanted subcutaneously with 0.72-mg 17β-estradiol 90-day release tablets (Innovative Research of America) 3 days prior to cell injection. […] Firefly luciferase expressing MCF7 and MCF7-F cells (2×10^6 cells in a 1:1 mixture of serum-free DMEM and Matrigel) were injected orthotopically into the fourth inguinal mammary fat pad of each mouse. Once the tumors were well established, each cell line cohort was divided into three groups (n=5). Mean tumor volume at the start of treatment was 111 mm^3 for the MCF7 cohorts and 119 mm^3 for the MCF7-F cohorts. The mice were treated by intraperitoneal injection every 4 days for a total of six doses with unconjugated or MMAE conjugated anti-cleaved-AREG 1A3 antibody (5 mg/kg), or vehicle control (PBS). Tumor volumes were calculated from caliper data by using the formula: Volume (mm^3)=(Length×Width^2)/2. Mice were imaged weekly with the in vivo FX PRO imaging system (Carestream Molecular Imaging, Woodbridge, CA, USA) after injecting luciferin (150 mg/kg body weight). Tumor volume and body weight were monitored once a week. Statistical Analysis:
(§3) To test in vivo efficacy of 1A3-MMAE, human breast cancer cell lines expressing luciferase were injected orthotopically into NSG mice (one tumor in each inguinal mammary gland). Once the average tumor size reached approximately 100-125 mm^3, mice were randomized to one of three treatment groups: PBS, 1A3 (5 mg/kg) or 1A3-MMAE (5 mg/kg). Mice received intraperitoneal injections every 4 days for six total injections and were monitored for tumor progression or regression. Similar experiments were performed with MCF7 (FIGS. 5A, 5B, and 5C, left panels) and MCF7-F (FIGS. 5A, 5B, and 5C, right panels) xenografts.

[6] = system: MCF7-F xenografts; experiment: Orthotopic MCF7-F endocrine-resistant xenograft in NSG mice; assay type: in vivo, mouse
Description: as §2, §3

[7] = system: MCF-7 cells; experiment: Tubulin staining (microtubule integrity); assay type: cell-based, human; details: 48 h treatment
Description: FIGS. 4A-4E. In vitro 1A3-MMAE cytotoxicity in MCF-7 (FIG. 4A) and MCF-7F (FIG. 4B) cells measured by MTT assay after treatment with 1A3-MMAE, 1A3 or MMAE. FIG. 4C: Clonogenic growth of MCF-7 or MCF-7F cells after exposure to 1A3-MMAE and replating. FIG. 4D: The quantification of clonogenic growth assays in FIG. 4C. (FIG. 4E). Tubulin staining of MCF-7 cells after 48 h treatment with MMAE, 1A3, 1A3-MMAE (40× magnification).

[8] = system: MCF7 cells; experiment: Clonogenic assay; assay type: cell-based, human; details: MCF7, 25 or 50 nM, 72 h then 14 days
Description: (§4) MCF7 breast cancer cells were plated in 48-well plates, allowed to attach overnight and treated with 12.5, 25 or 50 nM of 1A3-VC-PAB-MMAE for 72 h. A vehicle treated well served as control. After removing the ADC-containing medium, cells were washed using PBS, trypsinized and plated at a density of 1000 cells/well in 12-well plates. The cells were cultured for 14 days, with fresh medium addition every 3 days. The colonies were stained with 0.5% crystal violet solution. The number of colonies per well was counted.

[9] = system: MCF7-F cells; experiment: Clonogenic assay; assay type: cell-based, human; details: 25 or 50 nM, 72 h then 14 days
Description: as §4

[10] = system: MCF7 breast cancer cells; experiment: MTT cytotoxicity assay; details: MCF7, 1.56-200 nM, 72 h
Description: as §5

B1: 1A3-MMAE: Monomethyl auristatin E (MMAE) conjugated 1A3 antibody via valine-citrulline p-aminobenzylcarbamate linker (conjugate)
VH: QSVKESEGRLVTPGTPLRLTCTVAGYSLSRYHMCWVRQAPGKGLEWIGMIGGSGRTDYASWAKGRFTISKTSTTVDLKITSPTTEDTATYFCSTVYTDSDGDFWGPGTLVTVSS
VL: AELDMTQTPSSKSVPVGGTVTINCQASESVYSNDRLAWFQQKPGQPPKLLIYYASTLASGVPSRFKGSGSGTQFTLTISDLECADAATYYCQSCYDMSSYGVAFGGGTELEIL
binding to cleaved AREG peptide, unconjugated vs MMAE-conjugated [1]: no substantial difference in binding | reaction with peptide representing uncleaved AREG by immunoblot [2]: did not react | cytotoxicity by MTT assay [3]: considerable cytotoxicity | recognition of truncated AREG peptide by immunoblot [4]: specifically recognized | longitudinal luciferase imaging of xenografts ([5]; MCF7, 5 mg/kg): decreased in both volume and signal | xenografts in which tumor volume decreased (maximum response) ([5]; MCF7, 5 mg/kg): 8/10 | xenografts in which tumor volume increased (maximum response) ([5]; MCF7, 5 mg/kg): 2/10 | tumor volume response by caliper measurements ([5]; MCF7, 5 mg/kg i.p. every 4 days, six doses): strong tumor shrinkage | longitudinal luciferase imaging of xenografts ([6]; 5 mg/kg): decreased in both volume and signal | tumor volume response by caliper measurements ([6]; 5 mg/kg i.p. every 4 days, six doses): strong tumor shrinkage | xenografts cleared to sub-detectable levels ([6]; 5 mg/kg, 10 xenografts): 10 | tumors recurred after follow-up ([6]; 5 mg/kg, 204-day follow-up period): 10/10 | tumors returned to a size seen prior to treatment ([6]; 204-day follow-up): only one tumor | re-appearance of a lesion after the end of dosing (representative animal) ([6]; luciferase imaging): 70 days | tubulin disruption (microtubule integrity) [7]: exhibited tubulin disruption | clonogenic survival (number of colonies relative to control) [8]: dose-dependent effect on survival | clonogenic survival (number of colonies relative to control) [9]: dose-dependent effect on survival | cytotoxicity by MTT assay [10]: considerable cytotoxicity
